How the values were obtained:
Experiment in all cases: multiplexed single-antigen bead assay (Luminex); 5 µg PE-conjugated KIR tetramers, 30 min at room temperature, with LABScreen HLA Class I Single Antigen beads; MFI normalised to the highest value of each experiment
[1] = target: bead-bound HLA-C*14:02 presenting a broad repertoire of peptides (human)
[2] = target: bead-bound HLA-C*15:02 presenting a broad repertoire of peptides (human)
[3] = target: bead-bound HLA-C*17:01 presenting a broad repertoire of peptides (human)

soluble tetrameric form of KIR2DL2 (PE-conjugated KIR tetramer), sequence (P43627 22-245): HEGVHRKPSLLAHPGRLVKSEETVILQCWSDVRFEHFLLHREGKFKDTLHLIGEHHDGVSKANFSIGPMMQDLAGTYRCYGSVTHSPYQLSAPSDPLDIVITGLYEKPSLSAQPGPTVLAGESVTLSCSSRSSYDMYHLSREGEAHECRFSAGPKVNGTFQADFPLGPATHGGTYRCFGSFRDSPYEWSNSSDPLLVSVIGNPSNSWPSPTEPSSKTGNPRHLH
soluble tetrameric form of KIR2DL3 (PE-conjugated KIR tetramer), sequence (P43628 22-245): as the sequence (P43627 22-245) above, with R16P, E35Q, C148R, I200T, K216E counted along it

| percent of the avidity of the top binding allomorph [1] [%] | percent of the top avidity [2] [%] | percent of the top avidity [3] [%] | percent of the maximum avidity [1] [%] | Substance |
| --- | --- | --- | --- | --- |
| 14.7 | 55 | 55 |  | soluble tetrameric form of KIR2DL2 (PE-conjugated KIR tetramer) (from UniProt P43627 22-245) (receptor) |
|  |  |  | 43 | soluble tetrameric form of KIR2DL3 (PE-conjugated KIR tetramer) (from UniProt P43628 22-245) (receptor) |
